A short description of the data set: yeast display, Sf9 membrane polyspecificity reagent, FACS + sequencing; frameworks hold sequencing errors. In outline:
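Polyreactivity labels are assigned by the sorting gate from which each nanobody was recovered. The gates were low and high (top ~1%), set on anti-HA fluorescence for expression and streptavidin fluorescence for reagent binding. Before sorting, galactose-induced (36–48 hours) yeast display cells were stained for 1 hour at 4 °C with 10% biotinylated, detergent-solubilized Sf9 membrane reagent.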
Consider “QVQLVESGGGLVQAGGSLRLSCAASGSTFYKYAMGWYRQAPGKERELVASITWSGTSTYYADSVKGRFTISRDKAKNTVYLQMNSLKPEDTAVYYCNAGLESYYWGYTWEFDYWGQGTQVTVSS”, for which the “polyreactivity (PSR sort gate)” value is reported as “low polyreactivity”.
In the case of “QVQLVESGGGLVQAGGSLRLSCAASGSIFAKYAMGWYRQAPGKERELVAAISSGGSTYYADSVKGRFTISRDNAKNTVYLQMNSLKPEDTAVYYCNKPYGKETRYTFKVWYEYNYWGQGTQVTVSS” it was “low polyreactivity”.
Then “QVQLVESGGGLVQAGCSLRLICAASGLYAMGWYRQAPGKERELVADINSSGGSITNYADSVKGRFTISRDNAKNTVYLQMNSLKPEDTAVYDCAAPALGNYFYGYDYWGQGTQVTVSS”, with “low polyreactivity”.
In the case of “QVQLVESGGGLVQAGGSLRLSCAASGIIFYAYAMGWYRQAPGKERELVAAITFSAVSTYYADSVKGRFTISRDNAKNTVYLQMNSLKPEDTAVYYCAVDREWPGYYYAISKMYYWGQGTQVTVSS” it was “low polyreactivity”.
“QVQLVESGGGLVQAGGSLRLSCAASGRIFLTNAMGWYRQAPGKERELVAAITSGGSTYYADSVKGRFTISRDNAKNTVYLQMNSLKPEDTAVYYCNADTDRYWPYEYDYWGQGSQVTVSS”: the “polyreactivity (PSR sort gate)” value is reported as “low polyreactivity”.
Turning to “QVQLVESGGGLVQSGGSLRLSCAASGSTFVSNAMGWYRQAPGKERELVAAINGSGGITYYADSVKGRFTISRDNAKNTVYLQMNSLKPEDTAVYYCAAEYDGPSTWVDYYYHYGYWGQGTQVTVSS”, the “polyreactivity (PSR sort gate)” value is recorded as “low polyreactivity”.
Take “HAQLQESGGGLVQAGGSLRRSCAASGSIFRFSRMGWYRRAPGKERELVASIGFGSITYYADRVKGRFTISRDNANNTVYLQMNSLKPEDTAVYYCAVQVQDESWLDYWGQGTQVTVSC”: the “polyreactivity (PSR sort gate)” value is reported as “low polyreactivity”.
Then “QVQLVESGGGLVQAGGSLRLSCAASGSTFQFNTMGWYRQAPGKERELDAAITYSGGSTYYADSVKGRFTISRDNAKNTVYLQMNSQKPEDTAVYYCAADIITYDYPSYDGYIRYPYYYWGQGTQVTVTS”, with “low polyreactivity”; and “QFQLVESGGGLDQAGGSLRLSCAASGLIFYNYDMGWYRQAPGKERELVAAITLDGGITYYADSVKGRFTISRDNAKNTVYLQLNSLKPEDTAVYYCNRQYRLYGGYPSNLYEYWGQGTQVTVSS”, with “high polyreactivity”; and “QVQLVESGGGLVQAGGSLRLSCAASGRILGVYVMGWYRQAPGKERELVAAISGGGRTNYADSVKGRFTISRDNAKNTVYLQMNSLKPEDTAVYYCNAERPYQYYPGIYRWYYYWGQGTQVTVSS”, with “low polyreactivity”.
Then “QVQLVESGGGLVQAGGSLRLSCAASGSIFQYNDMGWYRQQPGKEREFVADISSSGGSTYYADSVKGRFTISRDTAKNTVYLQMNSLKPEDTEVYYCNADPGYDFYRDEYWGQGTQVTVSS”, with “low polyreactivity”.
Then “QVQLVESGGGLVQEGGSLRLSCAASGLIFSYYAMGWYRQAPGKERELVAAISWSGASTFYADSVKGRFTISRDNAKNTVYLQMNSLKPEDTAVYYCAADTYGKTYYYWGQGTLVTVSS”, with “low polyreactivity”.
Take “QVQLVESGGGLVQAGGSLRLSCAASGSTFGGYAMGWNRQAPGKEREWVAAISQSGTRTYYADSVKGRFTISRDNAKNTVYLQMNSLKPEDTAVYYCAAVKRFRKYDYWGQGTQVTVSS”: the “polyreactivity (PSR sort gate)” value was “high polyreactivity”.
Then “QVQLVESGGGLVQAGGSLRLSCASSGHIFIGNAMGWYRQAPGKERELVAAISRGGGRTYYADSVKGRFTISRDNAKNTVFLQMNILKPEDTAVYYCATVGQGPTKTPAGRYDYWGQGTQVTVSS”, with “high polyreactivity”; and “QVQLVESGGGLVQAGGSLRLICAASGRIFGYYAMGWYRQAPGKERELVAAISRAGSTYYADSVKGRFTISRDNAKNTVSLQMNSLKPEDTAVYYCAAVRSVQRHYTEMYYWGQVTQVTVSS”, with “high polyreactivity”.
In the case of “QVQLVESGGGLVQAGGSLRLSCAASGSTFEYNAMGWYRQAPGKERELVASSTNYADSVKGRFTISRDNAKNTVYLQMNSLKPEDTAVYYCARVQGVNRNHDYWGQGTQVTVSS” it was “low polyreactivity”.
In the case of “QVQLVESGGGLVQAGGSLRLSCAASGSTLHYYAMGWYRQAPGKERELVAAISATGGSTYYADSVKGRFTISRDNAKNTVYLQMNSLKPEDTAVYYCARTYRSHWVYTRLDYWGQGTQVTVSS” it was “high polyreactivity”.
Turning to “QVQLVESGGGLVQAGGSLRLTCAASGIIFDKNAMGWYRQAPGKERELVAVITRGGSTYYADSVKGRFTISRDNAKNTVYLQMNSLKPEDTAVYYCAARYTPGFGYWGQGTQVTVSS”, the “polyreactivity (PSR sort gate)” value is “high polyreactivity”.
Then “QVQLVESGGGLVQAGGSLRLSCAASGFTLYWNAMGWYRPAPGTERELVAGITNGGDTYYADSVKGRFTISRDNAKNTVYLQMNSLKPEDTAVYYCNVDPVYYRFHSSLSVIPGYDYWGQGTQVTVSS”, with “low polyreactivity”; and “QVQLVESGGGLVQAGGSLRLSCAASGSISGYYAMGWYRQAPGKERDLVASIRYTGARTYYADSVKGRFTISRDNAKNTVYVQMNSLKPEDTAVYYCAADVKRERVWGGDYWGLGTQVTVSS”, with “low polyreactivity”; and “QVQLVESGGGLVQAGGSLRLSCASSGIIFGGNAMGWYRQAPGKERELVATISNGGSTKYADSVKGRFTISRDNAKNTVYLQMNSLKPEDTAVYYCAAQPRVGSYVRSSRGRYNHWGQGTQVTVSS”, with “high polyreactivity”.
For the sequence “QVQLVESGGGLVQAGGSLRLSCAASGFTFWYYTMGWYRQAPGKERELVAAITRSGGRTYYADSVKGRFTISRDNAKNTVYLQMNSLKPEDTAVYDCAAVGNLYYTSHWQYDYWGQGTQVTVSS”, the “polyreactivity (PSR sort gate)” value was “high polyreactivity”.
Then “QVQLVESGGGLVQAGGSLRLSCAASGSIFWYYAMGWYRQAPGKERELVASISSSGGSTYYADSVKGRFTISRDNAKNTVYLQMNSLKPEYTAVYYCAKRTNWGYWYNSWGQGTQVTVSS”, with “high polyreactivity”.
For the sequence “QVQLVESGGGLVQAGGSLRLSCAASGRTFQYNAMGWYRQAPGKERELVAVISRGGRTNYADSVKGRFTISRDNAKNTVYLQMNSLKPEDTAVYYCAADWYTPQGVGLDYWGQGTQVTVSS”, the “polyreactivity (PSR sort gate)” value is listed as “low polyreactivity”.
Then “HVQLQESGGGLVQPGGSLRLSCAASGNISFSRNMGWYRQAPGKERELVAAIDRGAITYYGDSVKGRFTISRDNAKNTVYLQIYSLKPEDTAVYYCAAEYHDGWDHRYWGQGTQVTVSS”, with “high polyreactivity”; and “QVQLVESGGGLVQAGCSLRLSCAASGRTFTLNAMGWYRQAPGKERELVADITYSDGDTYYADSVKGRFTISRDNAKNTVYLQMNSLIPEDTAGYYCAAGGYTDPGYEYWGQGTQVTVSS”, with “low polyreactivity”.
Turning to “QVQLVESGGGLVQAGGSLRLSCAASGITFKTYAMGWYRQAPGKERELVATINRGSRTNYADSVKGRFTISRDNAKNTVYLQMNSLKPEDTAVYYCAAEYVTYISSEMDYWGQGTQVTVSS”, the “polyreactivity (PSR sort gate)” value is reported as “low polyreactivity”.
Then “QVQLVESGGGLVQAGGSLRLSCAASGRTFRYYAMGWYRQAPGKERELVAAISWSGVRTYYADSVKGRFTISRDNSKNTVYLQMNSLKPEDTAVYYCAKGGYWGQGTQVTVSS”, with “high polyreactivity”; and “QVQLVESGGGLVQAGGSLRLSCAASGRTFYRNDMVWYRQSPGKERELVARITSGGSTNYADSVKGRFTISRDNAKNTVYLQMNSLKPEDTGVYYCAAVSRYYPYGYWGQGTQVTVSS”, with “high polyreactivity”; and “QVQLVESGGGLVQAGGSLRLSCAASGSTFDFNVMGWYRQAPGKERELVAAISSGSSTYYADSVKGRFTISRDNAKNTVYLQMNSLKPEDTAVYYCARRYQLVRTRYYYWGQGTQVTVSS”, with “high polyreactivity”.
In the case of “QVQLLESGGGLVQAGGSLRLSCAASGLTFSSYTMGWYRQAPGKERELVAANTRRGTSTYYADSVKGRFTISRDNAKNTVYLQMNSLKPEDTAVYYCNALVYDEYGYYHYYLRNGGYYWGQGTQVTVSS” it was “high polyreactivity”; in that of “QVQLVESGGGLVQAGGSLRLSCAASGSTFYYYAMGWYRQAPGKEREFVASISSRGTSTYYADSVKGPFTISRDNAKNTVYLQMNSLKPEDTAVYYCAARGWGPTRAYDYWGQGTQVTVSS”, “high polyreactivity”; in that of “QVQLVESGGGLVQAGGSLRLSCAASGRTFAYHTMGWYRQAPGKERELVARINSGTSTYYADSVKGRFTISRDNEKNTVYLQMNSLKPEDTAVYYCAARGSESIRWYVGGRYGYWGQGTQVTVSS”, “low polyreactivity”.
Consider “QVQLVESGGCLVQAGGSLRLSCAASGITFPGNAMGWYRPATGKERELVAVIRKSGTSTYYADSVKGRFTISRDNAKNTVYLQMISLIPEDTAVYYCAAGGPSTLDDYWGHGTQVTVSS”, for which the “polyreactivity (PSR sort gate)” value is reported as “low polyreactivity”.
In the case of “QVQLVESGGGLVQAGGSLRLSCAASGNIFQGNAMGWYRQAPGKERELVAAITSDGSTYADSVKGRFTISRDNAKNTVYLQMNSLKPEETAVYYCNADCITSLPVPALDYWGQGTQVTVSS” it was “low polyreactivity”; in that of “QFQLVESGGGLDQAGGSLRLSCAASGLIFSTYSMGLYIQARGKETELVAAISGTGSTYYADSVKGRFTISRDNAKNTVYLQMNSLKPEDTAVYYCNADTYYAGRRYDYWGQGTQVTVSS”, “low polyreactivity”; in that of “QVQLVESGGGLVQAGGILRLSCAASGSTISYNAMGWYRQAPGKERELVAAINYSGGNTNYADSVKGRFTISRDNAKNTVYLQMNSLKPEDTAVYYCAARWWSGYGYWGQGTQVTVSS”, “high polyreactivity”.
In the case of “QVQLVESGGGLVQAGGSLRLSCAASGSTFKRYAMGWYRQAPGKERELVAAISRRGGSTYYADSVKGRFTISRDNAKNTVYLQMNSLKPEDTAVYYCAARIASHLYYYWGQGTQVTVSS” it was “high polyreactivity”; in that of “QVQLEESGGGLVQAGGSLRLSCAASGSIFYEYAMGLYRTAPGKERVFVAAISSRGGYTNYADSVKGRFTISRDNAKNTVYLQMNSLKPEDTAVYYWAGYGGLQSRYYYWGLGTQVTVSS”, “high polyreactivity”; in that of “QVQLVESGGGLVQAGGSLRLSCAASGFTFHYYAMGWYRQAPGKERELVAAISWSSGRTYYADSVKGRFTISRDNAKNTVYLQMNSLKPEDTAVYYCAASSYNRRDYWGQGTQVTVSS”, “high polyreactivity”.
In the case of “QVQLVESGGGLVQAGGSLRISCAASGRIFAQYVMGWYRQAPGKERELVAAISSGGSTYYADSVKGRFTISRDNAKNTVYLQMNSLKPEDTAVYYCAARSRAHRVGRQPFDYWGQGTQVTVSS” it was “high polyreactivity”.

Values taken from the nanobody polyreactivity screen of Harvey et al. (2022).
